In paper PMC11229335, “The translocation activity of Rad54 reduces crossover outcomes during homologous recombination”:

Columns and labels:
Experiment in all cases: EMSA; 3 mM MgCl2; 0-50 nM protein, 10 nM DNA; EMSA: 35 mM Tris-Cl pH 7.5, 3 mM MgCl2, 50 mM KCl, 1 mM DTT, 10% glycerol, 30 C, 5 min; curtains: 20 mM Tris-OAc pH 7.5, 50 mM NaCl, 10 mM MgOAc2, 200 ng/ul BSA, 1 mM DTT
Conditions in all cases: protein: recombinant; label: 5'-Atto647N on strand 1; blunt
Rad54 R272A = target: T1, Rad54 R272A (Saccharomyces cerevisiae, UniProt P32863 1-898, R272A)
T1 sequence: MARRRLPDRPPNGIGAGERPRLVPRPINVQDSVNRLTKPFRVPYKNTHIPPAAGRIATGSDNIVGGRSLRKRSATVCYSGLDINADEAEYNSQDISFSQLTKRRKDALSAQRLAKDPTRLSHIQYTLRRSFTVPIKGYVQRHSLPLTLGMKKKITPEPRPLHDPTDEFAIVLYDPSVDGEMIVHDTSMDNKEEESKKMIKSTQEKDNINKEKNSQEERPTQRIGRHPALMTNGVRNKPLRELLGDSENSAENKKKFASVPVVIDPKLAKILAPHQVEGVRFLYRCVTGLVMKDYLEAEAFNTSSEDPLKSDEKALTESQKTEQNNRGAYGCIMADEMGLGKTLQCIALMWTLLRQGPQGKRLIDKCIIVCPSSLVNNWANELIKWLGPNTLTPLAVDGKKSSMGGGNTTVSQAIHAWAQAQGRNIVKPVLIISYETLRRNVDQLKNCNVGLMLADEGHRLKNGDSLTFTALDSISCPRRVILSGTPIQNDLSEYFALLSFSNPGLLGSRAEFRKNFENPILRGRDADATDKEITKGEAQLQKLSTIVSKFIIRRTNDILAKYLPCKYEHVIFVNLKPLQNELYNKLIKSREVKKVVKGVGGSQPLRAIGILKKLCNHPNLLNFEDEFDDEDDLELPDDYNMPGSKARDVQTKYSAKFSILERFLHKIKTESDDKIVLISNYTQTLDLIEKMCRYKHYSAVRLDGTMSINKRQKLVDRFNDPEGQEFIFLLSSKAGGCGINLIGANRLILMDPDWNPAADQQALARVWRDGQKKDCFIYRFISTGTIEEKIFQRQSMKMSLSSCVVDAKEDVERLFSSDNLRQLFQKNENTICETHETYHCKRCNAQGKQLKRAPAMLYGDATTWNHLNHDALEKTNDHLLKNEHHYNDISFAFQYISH

Rad54 = target: T2, Rad54 (Saccharomyces cerevisiae, UniProt P32863 1-898)
T2 sequence: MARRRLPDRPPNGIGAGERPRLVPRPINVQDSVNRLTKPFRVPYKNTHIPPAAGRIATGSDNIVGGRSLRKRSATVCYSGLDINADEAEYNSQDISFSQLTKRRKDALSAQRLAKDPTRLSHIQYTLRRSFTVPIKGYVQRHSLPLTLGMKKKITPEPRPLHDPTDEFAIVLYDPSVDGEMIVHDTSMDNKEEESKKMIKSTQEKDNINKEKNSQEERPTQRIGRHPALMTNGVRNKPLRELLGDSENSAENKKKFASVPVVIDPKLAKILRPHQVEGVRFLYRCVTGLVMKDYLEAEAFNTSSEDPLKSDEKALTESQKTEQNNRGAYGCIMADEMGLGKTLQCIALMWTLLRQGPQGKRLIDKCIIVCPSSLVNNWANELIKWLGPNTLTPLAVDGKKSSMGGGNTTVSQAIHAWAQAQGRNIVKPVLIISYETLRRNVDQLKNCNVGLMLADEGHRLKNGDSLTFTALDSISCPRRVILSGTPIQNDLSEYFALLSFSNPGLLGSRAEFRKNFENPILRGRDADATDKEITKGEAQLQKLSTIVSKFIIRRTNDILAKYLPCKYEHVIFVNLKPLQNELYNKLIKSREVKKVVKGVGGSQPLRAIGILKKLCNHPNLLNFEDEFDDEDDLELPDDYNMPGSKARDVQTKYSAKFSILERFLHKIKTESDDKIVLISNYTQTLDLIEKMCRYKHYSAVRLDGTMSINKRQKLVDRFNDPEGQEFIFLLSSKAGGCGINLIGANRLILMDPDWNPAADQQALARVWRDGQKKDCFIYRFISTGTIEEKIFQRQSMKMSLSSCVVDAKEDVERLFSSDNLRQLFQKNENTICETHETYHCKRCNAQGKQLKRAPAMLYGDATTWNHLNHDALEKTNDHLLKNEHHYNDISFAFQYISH

Rad54 R272Q = target: T3, Rad54 R272Q (Saccharomyces cerevisiae, UniProt P32863 1-898, R272Q)
T3 sequence: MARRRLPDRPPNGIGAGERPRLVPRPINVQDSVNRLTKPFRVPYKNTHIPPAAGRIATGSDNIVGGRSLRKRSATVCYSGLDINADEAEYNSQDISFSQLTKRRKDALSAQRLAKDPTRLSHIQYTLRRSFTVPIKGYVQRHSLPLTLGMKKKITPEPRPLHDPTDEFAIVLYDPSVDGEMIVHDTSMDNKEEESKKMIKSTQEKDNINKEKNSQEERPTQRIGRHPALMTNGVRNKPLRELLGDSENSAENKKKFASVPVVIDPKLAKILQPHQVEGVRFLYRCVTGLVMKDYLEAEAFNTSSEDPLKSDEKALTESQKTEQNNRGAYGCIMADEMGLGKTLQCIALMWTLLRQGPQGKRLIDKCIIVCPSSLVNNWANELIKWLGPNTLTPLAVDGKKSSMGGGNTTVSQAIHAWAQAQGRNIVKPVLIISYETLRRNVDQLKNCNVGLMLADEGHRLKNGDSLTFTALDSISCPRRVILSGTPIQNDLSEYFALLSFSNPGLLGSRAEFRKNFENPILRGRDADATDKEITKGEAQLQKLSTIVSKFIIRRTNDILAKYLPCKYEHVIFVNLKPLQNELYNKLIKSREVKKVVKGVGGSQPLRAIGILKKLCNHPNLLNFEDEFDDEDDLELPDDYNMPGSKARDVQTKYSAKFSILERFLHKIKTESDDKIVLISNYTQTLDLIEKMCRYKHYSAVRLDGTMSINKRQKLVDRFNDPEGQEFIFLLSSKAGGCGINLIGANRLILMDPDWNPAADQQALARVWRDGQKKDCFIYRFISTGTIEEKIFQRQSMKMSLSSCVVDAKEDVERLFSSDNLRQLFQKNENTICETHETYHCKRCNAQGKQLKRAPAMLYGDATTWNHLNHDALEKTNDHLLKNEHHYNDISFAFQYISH

Measured: binding result

B1: 90-mer EMSA dsDNA (dsDNA)
DNA 1: TGTAAAACGACGGCCAGTGAATTCGAGCTCGGTACCCGGGGATCCTCTAGAGTCGACCTGCAGGCATGCAAGCTTGGCGTAATCATGGTC
DNA 2: GACCATGATTACGCCAAGCTTGCATGCCTGCAGGTCGACTCTAGAGGATCCCCGGGTACCGAGCTCGAATTCACTGGCCGTCGTTTTACA
binds: all assays above
